Reference: article PMC7601681, “Human Serum Albumin Binds Native Insulin and Aggregable Insulin Fragments and Inhibits Their Aggregation” (Biomolecules, 2020)

Assays:
[1] = Light microscopy of Congo Red stained aggregates; type: physicochemical; settings: CR staining 3 days; for microscopic examination of CR-stained aggregates, in the presence of HSA: peptide 1.44 mM, HSA 0.30 mM, phosphate buffer 0.1 M pH 7.2, 7 days at 37.4 °C; for microscopic examination of CR-stained aggregates, without HSA: phosphate buffer 0.1 M pH 7.2, 7 days at 37 °C
Description: Microscopic studies were carried out for samples prepared in phosphate buffer (0.1 M, pH 7.2) incubated for 7 days at 37.4 °C. To 2 mL of H-LYQLENY-OH (5) and H-VEALYL-OH (6) (c = 2.88 mM) solution was added 2 mL of HSA solution (c = 0.60 mM). The final concentration of incubated peptides was equal to c = 1.44 mM, whereas, for plasma protein, it was 0.30 mM. Incubation was also performed for 4 mL of an HSA sample (c = 0.3 mM). After that period, 4 mL of CR solution (c = 45 μM in phosphate buffer, pH 7.2) was added to the all samples, which were incubated for another 3 days at room temperature.
The microscopic assays were performed for samples stained with Congo Red dye. The samples were transferred on a microscopic slide and visualized using a Delta Optical Genetic Pro (Warsaw, Poland) light microscope.

[2] = Congo Red (CR) UV-Vis aggregation assay; type: physicochemical; settings: peptide 1.44 mM with HSA 1.44 mM, phosphate buffer pH 7.2, 7 days at 37.2 °C, then CR 45 μM for 3 days, UV-Vis 400–800 nm
Description: Insulin, peptides 5 and 6, and HSA (final concentration 2.88 mM), as well as each sample of the mixture of insulin, peptides 5 and 6) (1.44 mM) with HSA (1.44 mM), were incubated in phosphate buffer solution at pH 7.2 (1 mL) for 7 days at a temperature of 37.2 °C. Then, 1 mL of a solution of Congo Red dye (45 μM in phosphate buffer, pH 7.2) was added to each incubated sample. Incubation continued for another 3 days. During this time, spectroscopic measurements of all the samples were performed in the range of 400–800 nm. The UV-Vis spectra recorded on the first, second, and third days of incubation for all samples are shown in the Supplementary Material (Figures S1 and S2).
The UV-Vis measurements were carried out using a Hitachi spectrophotometer (Hitachi, Tokyo, Japan).

[3] = Thioflavin T (ThT) fluorescence aggregation assay; type: physicochemical; settings: peptide 0.33 mM with HSA 0.33 mM, phosphate buffer pH 6.0, 7 days at 37.2 °C, then ThT for 3 days, λexc 440 nm, 470–600 nm
Description: Insulin, peptides 5 and 6, and HSA (final concentration 0.66 mM), as well as each sample of the mixture of insulin, peptides 5 and 6) (0.33 mM) with HSA (0.33 mM) were incubated in phosphate buffer solution, pH 6.0 (2 mL), for 7 days at a temperature of 37.2 °C. Then, 2 mL of a solution of Thioflavin T ([…] in phosphate buffer, pH 6.0) was added to the samples. Incubation continued for another 3 days. During this time, spectroscopic measurements of all samples were performed in the range of 470–600 nm, excitation wavelength 440 nm. The intensity of fluorescence spectra recorded on the first, second, and third days of incubation for all samples. are shown in the Supplementary Material (Figures S3 and S4).
The fluorescence intensity measurements were carried out using a FLUOROMAX-4 system from Horiba Scientific (Edison, NJ, USA), measurement range of 470–600 nm, excitation wavelength 440 nm.

[4] = Circular dichroism (CD) after incubation with HSA; type: physicochemical; settings: 0.1 mg/mL, phosphate buffer pH 7.2, measured after 30 min, two and four days of incubation at 37 °C, 190–270 nm
Description: Samples were prepared by dissolving 1 mg of the analyzed peptide in phosphate buffer pH 7.2 (10 mL), to a final concentration of 0.1 mg/mL All measurements were carried out at room temperature using a quartz cuvette (1 mm path length, Hellma). The experimental settings were as follows: measurements range, 190–270 nm; data pitch, 5 nm; scanning mode, continuous; scanning speed, 100 nm/min; bandwidth, 3 nm; integration time, 1 s.
The CD spectra were recorded using a Jasco J-1500 instrument (Jasco, Cracow, Poland) and quartz cuvettes with 1 mm optical path lengths. The measurements were acquired in the range of 190–270 nm at ambient temperature by taking points every 5 nm, with a scan rate of 100 nm per min, an integration time of 1 s, and a bandwidth of 4 nm. The samples were prepared in phosphate buffer (0.1 M, pH 7.2) with a final concentration of 0.1 mg/mL.
Circular dichroism (CD) spectroscopy can be a very valuable source of information about differences in the secondary structure of peptides and proteins. It has been shown that all α-helical proteins show a strong minimum at 222 nm and 208–210 nm and a strong maximum at 191–193 nm. In the case of β-sheet protein, a single negative band may be observed in the 210–225 nm wavelength range and a strong positive band in the 190–200 nm wavelength range, although their intensities are noticeably lower than those for α-proteins. The CD spectra recorded for buffered solutions of insulin (4) and hot-spot fragments (5), (6) in the presence of HSA as well as for native insulin are presented in Figure 9a,b. The measurements were performed after 30 min (sample 0), and then after two and four days of incubation at 37 °C.

HSA [5] = biological target: T1, HSA (Homo sapiens, UniProt P02768); settings: probe trapped inside HSA; cited from earlier work
T1 construct: purchased Sigma-Aldrich
Text: The calculated value also confirmed existence of interactions between 2 and HSA with pyrene fragment presented on less polar environment inside protein. […] The binding constants 1.5 ± 0.3 × 10^6 dm^3 ...

albumins = settings: cited from earlier work
Text: Pyrene and its derivatives are very popular fluorescent markers used to study interactions with HSA [49, 50, 51, 52]. Despite the fact that there is differentiated localization of pyrene derivatives in HSA, these systems are commonly applied as fluorescent probes, due to the high sensitivity of their fine vibronic structure to changes in the environment (the Ham effect) and long fluorescence lifetimes. […] A similar trend was also observed for the complex of ...

[6] = Absorption spectra of the filtered HSA/Py-Ins complex on storage; type: physicochemical; settings: [Py-Ins] 16.38 μM, [HSA] 30 μM, filtered through 0.2 µm syringe filter, spectra after 2, 4 and 6 days
Description: Broad absorption bands can indicate the presence of Py-Ins aggregates. Therefore, a solution of Py-Ins (1) complex with HSA was filtered through a 0.2 µm syringe filter in order to remove any Py-Ins aggregates, and the stability of the complex was tested for a further 6 days. […] This may indicate that the Py-Ins (1) conjugate was completely bound to the HSA, and that the protein has a protective role in the aggregation process. Additional confirmation of this was provided by the observed linear increase in Py-Ins absorbance for the samples diluted with 30 µM HSA solution (Figure 2, panel IIb).

[7] = Time-resolved fluorescence decay of the pyrene label in buffer or TX-100 (no protein); type: physicochemical; settings: [Py-Ins] 16.38 μM, λexc 337 nm, λem 405 nm; for <τ> average fluorescence lifetime: Equation (2); for A1 (amplitude of fast component, aggregate fraction) / A2 (amplitude of slow component, monomer) / τ1 (fast component, aggregate form) / τ2 (slow component, monomer form): bi-exponential fit
HSA [8] = biological target: T1, HSA; experiment: Time-resolved fluorescence decay of the pyrene label in the presence of HSA; type: binding; settings: for <τ> average fluorescence lifetime / A1 (amplitude of fast component, aggregate fraction) / A2 (amplitude of slow component, monomer) / τ1 (fast component, aggregate form) / τ2 (slow component, monomer form): 30 μM HSA in PBS, [Py-Ins] 16.38 μM, λexc 337 nm, λem 405 nm; for <τ> average fluorescence lifetime: Equation (2); for A1 (amplitude of fast component, aggregate fraction) / A2 (amplitude of slow component, monomer) / τ1 (fast component, aggregate form) / τ2 (slow component, monomer form): bi-exponential fit
Description: The solutions of HSA (concentration = 3 10^−5 M) were prepared by dissolving the protein in 0.01 M of phosphate buffer saline (PBS, [NaCl] = 150 mM), pH = 7.2. […] The prepared samples were used within 24 h. […] In order to ensure complete protein hydration, the solutions were stored at room temperature for at least 1 h before measurements. The samples for fluorescence measurements were saturated with argon or deaerated with a vacuum pump.
Time-resolved measurements of HSA fluorescence were performed using a flash photolysis system based on a GL-3300 nitrogen laser (Photon Technology International, Birmingham, NJ, USA) providing single light pulses with a wavelength of 337.1 nm, duration ~800 ps, and average energy 100 µJ. The detection system consisted of a Baush&Lomb monochromator (Rochester, NY, USA), Hamamatsu 1P28 photomultiplier, and a PS325 power supply system (Stanford Research, Sunnyvale, CA, USA). […] All experiments were carried out at room temperature (25 ± 1 °C) using quartz cells with an optical length of 1 cm.

In the case of H-LYQLENY-OH [LYQLENY, H-LYQLENY-OH], the “microscopic examination of CR-stained aggregates, in the presence of HSA” value [1] was “significantly less content of fibers characteristic for amyloid deposits”, the “microscopic examination of CR-stained aggregates, without HSA” value [1] was “typical amyloid fibers” and the “Congo Red assay of HSA complexes: absorbance change” value (“Congo Red assay … absorbance change” below) [2] was “no decrease in absorbance typical for amyloid structures”. For the same molecule, the “Thioflavin T assay of HSA complexes: fluorescence intensity” value (shortened to “Thioflavin T assay of HSA complexes”) [3] was “no increase in fluorescence intensity” and the “secondary structure / amyloid formation in the presence of HSA by CD” value (“secondary structure / amyloid formation” for short) [4] was “increase in the amount of the α-helix structure”.

For “insulin: native human recombinant insulin (Sigma-Aldrich)”, the “Congo Red assay … absorbance change” value [2] was “no decrease in absorbance typical for amyloid structures”, the “Thioflavin T assay of HSA complexes” value [3] was “no increase in fluorescence intensity” and the “secondary structure / amyloid formation” value [4] was “does not tend to form amyloid fibrils”.

For `O=S(=O)(O)c1ccc2ccc3cccc4ccc1c2c34` [PSA, 1-pyrene sulfonic acid], the “binding constant, non-specific binding” value (HSA [5]) is listed as 3.8 × 10^5 dm^3 mol^−1 and the “binding constant, specific receptor site” value (HSA [5]) is listed as 6.5 × 10^6 dm^3 mol^−1.

In the case of H-VEALYL-OH [VEALYL, H-VEALYL-OH], the “microscopic examination of CR-stained aggregates, in the presence of HSA” value [1] was “significantly less content of fibers characteristic for amyloid deposits”, the “microscopic examination of CR-stained aggregates, without HSA” value [1] was “typical amyloid fibers” and the “Congo Red assay … absorbance change” value [2] was “no decrease in absorbance typical for amyloid structures”. For the same molecule, the “Thioflavin T assay of HSA complexes” value [3] was “no increase in fluorescence intensity” and the “secondary structure / amyloid formation” value [4] was “prevents the formation of amyloid fibrils”.

For `c1cc2ccc3cccc4ccc(c1)c2c34` [Pyrene], the “binding constant with albumins” value (albumins; nonspecific binding, order of magnitude) is given as ~10^4 dm^3 mol^−1.

In the case of “Py-Ins: derivative of human insulin labeled with 4-(1-pyrene)butyric acid”, the “stability of the HSA complex / aggregation: changes of absorption spectra on storage” value [6] was “no changes were observed”, the “<τ> average fluorescence lifetime” value ([7]; 20 mM TX-100, filtered) was 161.2 ns and the “A1 (amplitude of fast component, aggregate fraction)” value ([7]; 20 mM TX-100, filtered) was 0.1. The “A2 (amplitude of slow component, monomer)” value ([7]; 20 mM TX-100, filtered) was 0.9, the “τ1 (fast component, aggregate form)” value ([7]; 20 mM TX-100, filtered) was 18.2 ns and the “τ2 (slow component, monomer form)” value ([7]; 20 mM TX-100, filtered) was 162.0 ns. The “<τ> average fluorescence lifetime” value ([7]; 20 mM TX-100, non-filtered) was 147.9 ns, the “A1 (amplitude of fast component, aggregate fraction)” value ([7]; 20 mM TX-100, non-filtered) was 0.2 and the “A2 (amplitude of slow component, monomer)” value ([7]; 20 mM TX-100, non-filtered) was 0.8. The “τ2 (slow component, monomer form)” value ([7]; 20 mM TX-100, non-filtered) was 152.7 ns, the “A1 (amplitude of fast component, aggregate fraction)” value ([7]; PBS buffer, filtered) was 0.2 and the “A2 (amplitude of slow component, monomer)” value ([7]; PBS buffer, filtered) was 0.8. For the same molecule, the “τ1 (fast component, aggregate form)” value ([7]; PBS buffer, filtered) was 20.1 ns, the “τ2 (slow component, monomer form)” value ([7]; PBS buffer, filtered) was 98.8 ns and the “<τ> average fluorescence lifetime” value ([7]; PBS buffer, non-filtered) was 86.6 ns. For the same molecule, the “A1 (amplitude of fast component, aggregate fraction)” value ([7]; PBS buffer, non-filtered) was 0.5, the “A2 (amplitude of slow component, monomer)” value ([7]; PBS buffer, non-filtered) was 0.5 and the “τ2 (slow component, monomer form)” value ([7]; PBS buffer, non-filtered) was 98.4 ns. For the same molecule, the “<τ> average fluorescence lifetime” value (HSA [8]; filtered) was 145.6 ns, the “A1 (amplitude of fast component, aggregate fraction)” value (HSA [8]; filtered) was 0.2 and the “A2 (amplitude of slow component, monomer)” value (HSA [8]; filtered) was 0.8. The “τ1 (fast component, aggregate form)” value (HSA [8]; filtered) was 19.4 ns, the “τ2 (slow component, monomer form)” value (HSA [8]; filtered) was 150.4 ns and the “<τ> average fluorescence lifetime” value (HSA [8]; non-filtered) was 133.6 ns. For the same molecule, the “A1 (amplitude of fast component, aggregate fraction)” value (HSA [8]; non-filtered) was 0.4, the “A2 (amplitude of slow component, monomer)” value (HSA [8]; non-filtered) was 0.6 and the “τ1 (fast component, aggregate form)” value (HSA [8]; non-filtered) was 19.1 ns. The “τ2 (slow component, monomer form)” value (HSA [8]; non-filtered) was 143.8 ns and the aggregate fraction (HSA [8]; diluted Py-Ins/HSA solutions, [Py-Ins]/[HSA] = 0.11, data not shown) was “about 20%”.

In the case of `O=C(O)CCCc1ccc2ccc3cccc4ccc1c2c34` [PBA, 4-(1-pyrene)butyric acid], the affinity for albumin (albumins) is listed as “weak affinity”.
